# Reference: patent US20180284135A1
# T1: intact recombinant human POSTN (periostin, SEQ ID NO: 1)
# T1 chain: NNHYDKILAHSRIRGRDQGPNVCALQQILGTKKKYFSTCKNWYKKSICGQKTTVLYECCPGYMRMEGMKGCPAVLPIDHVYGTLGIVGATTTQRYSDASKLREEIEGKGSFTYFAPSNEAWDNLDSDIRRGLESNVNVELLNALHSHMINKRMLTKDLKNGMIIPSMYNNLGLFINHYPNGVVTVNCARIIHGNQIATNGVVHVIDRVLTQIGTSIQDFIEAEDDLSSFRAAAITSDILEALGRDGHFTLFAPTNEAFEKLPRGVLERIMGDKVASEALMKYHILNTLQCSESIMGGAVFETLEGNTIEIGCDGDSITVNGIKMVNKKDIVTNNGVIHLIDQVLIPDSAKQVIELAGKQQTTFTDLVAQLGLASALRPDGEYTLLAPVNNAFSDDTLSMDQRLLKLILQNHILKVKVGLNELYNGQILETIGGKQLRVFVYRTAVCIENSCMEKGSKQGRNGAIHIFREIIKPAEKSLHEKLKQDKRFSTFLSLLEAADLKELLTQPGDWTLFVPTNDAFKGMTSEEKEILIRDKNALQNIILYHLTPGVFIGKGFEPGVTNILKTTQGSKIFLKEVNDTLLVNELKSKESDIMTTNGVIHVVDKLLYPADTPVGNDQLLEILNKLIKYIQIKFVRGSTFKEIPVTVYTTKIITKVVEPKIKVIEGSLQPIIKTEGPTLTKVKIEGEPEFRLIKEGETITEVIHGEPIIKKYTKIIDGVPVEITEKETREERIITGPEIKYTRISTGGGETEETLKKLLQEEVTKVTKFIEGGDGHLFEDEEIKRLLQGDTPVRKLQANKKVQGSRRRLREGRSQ
# B1: human CatK of SEQ ID NO: 19 (Cathepsin K) (protein)
# chain: APDSVDYRKKGYVTPVKNQGQCGSCWAFSSVGALEGQLKKKTGKLLNLSPQNLVDCVSENDGCGGGYMTNAFQYVQKNRGIDSEDAYPYVGQEESCMYNPTGKAAKCRGYREIPEGNEKALKRAVARVGPVSVAIDASLTSFQFYSKGVYYDESCNSDNLNHAVLAVGYGIQKGNKHWIIKNSWGENWGNKGYILMARNKNNACGIANLASFPKM
# Target: T1, intact recombinant human POSTN …
protein,measurement,value
B1,"CatK digestion of human recombinant POSTN (SDS-PAGE, LC-MS/MS)",human POSTN is a substrate to CatK-dependent enzymatic digestion that is generating large amount of several peptides
